The supplement of paper PMC7877785
± gives the uncertainty stated by the source.

Experiment: self-splicing fitness, log relative to wild type (ln ratio); higher = more splicing; Tetrahymena group I intron in knt gene, E. coli kanamycin selection, DiMSum; sequences stand for … in CUCUCU…GGAGGGAAAAGUUAUCAGGCAUGCACCUGGUAGCUAGUCUUUAAACCAAUAGAUUGCAUCGGUUUAAAAGGCAAGACCGUCAAAUUGCGGGAAAGGGGUCAACAGCCGUUCAGUACCAAGUCUCAGGGGAAACUUUGAGAUGGCCUUGCAAAGGGUAUGGUAAUAAGCUGACGGACAUGGUCCUAACCACGCAGCCAAGUCCUAAGUCAACAGAUCUUCUGUUGAUAUGGAUGCAGUUCACAGACUAAAUGUCGGUCGGGGAAGAUGUAUUCUUCUCAUAAGAUAUAGUCGGACCUCUCCUUAAUGGGAGCUAGCGGAUGAAGUGAUGCAACACUGGAGCCGCUGGGAACUAAUUUGUAUGCGAAAGUAUAUUGAUUAGUUUUGGAGUACUCGUGGUCG
In short: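 Pooled colonies went to amplicon sequencing on an Illumina HiSeq 2500 after six replicate transformations. The plates were LB agar with 100 μg/mL carbenicillin, 50 μM IPTG and 0.2% rhamnose, with or without 25 μg/mL kanamycin, incubated overnight at 37°C or 30°C. The E. coli BL21(DE3) library had all eight P1ex-region intron nucleotides randomised, the intron placed in the knt kanamycin-resistance gene on pET-22b(+). DiMSum fitness is the error-weighted combination of replicate fold changes, kanamycin against none, normalised to wild type.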

| Sequence | self-splicing fitness (ln) (30 °C) | self-splicing fitness (ln) (37 °C) |
| --- | --- | --- |
| CACCAGCAAUAUUACGUUCA | -3.07 ± 0.16 | -2.15 ± 0.16 |
| CACGAGCAAUAUUACGAUCA | -2.68 ± 0.22 | -2.11 ± 0.19 |
| CACGAGCAAUAUUACGAUGA | -3.21 ± 0.24 | -2.17 ± 0.23 |
| CACGAGCAAUAUUACGAUGC | -3.47 ± 0.37 | -2.74 ± 0.29 |
| CACGAGCAAUAUUACGCAAG | -2.4 ± 0.19 | -0.867 ± 0.15 |
| CACGAGCAAUAUUACGCACU | -2.87 ± 0.39 | -1.61 ± 0.23 |
| CACGAGCAAUAUUACGCCGC | -2.93 ± 0.35 | -1.33 ± 0.48 |
| CACGAGCAAUAUUACGCGUC | -3.19 ± 0.32 | -1.52 ± 0.19 |
| CACGAGCAAUAUUACGCUCU | -2.57 ± 0.18 | -2.93 ± 0.28 |
| CACGAGCAAUAUUACGGAGA | -3.38 ± 0.2 | -2.85 ± 0.25 |
| CACGAGCAAUAUUACGGCAC | -2.97 ± 0.23 | -2.43 ± 0.25 |
| CACGAGCAAUAUUACGGUAA | – | -2.37 ± 0.27 |
| CACGAGCAAUAUUACGGUCU | -3.44 ± 0.19 | -1.73 ± 0.16 |
| CACGAGCAAUAUUACGUAAA | – | -1.83 ± 0.21 |
| CACGAGCAAUAUUACGUACA | -3.75 ± 0.37 | -2.49 ± 0.24 |
| CACGAGCAAUAUUACGUACC | -2.54 ± 0.5 | – |
| CACGAGCAAUAUUACGUCAA | -2.34 ± 0.17 | -2.13 ± 0.23 |
| CACGAGCAAUAUUACGUCUA | -1.3 ± 0.32 | -1.55 ± 0.27 |
| CACGAGCAAUAUUACGUUAU | -3.4 ± 0.19 | -3.62 ± 0.31 |
| CACGAGCAAUAUUACGUUCU | -3.56 ± 0.2 | -2.02 ± 0.26 |
| CACUAGCAAUAUUACGAAAG | -1.23 ± 0.062 | -0.136 ± 0.084 |
| CACUAGCAAUAUUACGACCU | -2.03 ± 0.28 | -1.6 ± 0.18 |

| Sequence | self-splicing fitness (ln) (30 °C) | self-splicing fitness (ln) (37 °C) |
| --- | --- | --- |
| CACUAGCAAUAUUACGACGC | -2.52 ± 0.12 | -1.02 ± 0.13 |
| CACUAGCAAUAUUACGACGU | -2.27 ± 0.14 | -1.8 ± 0.11 |
| CACUAGCAAUAUUACGAGAU | -3.87 ± 0.39 | -2.97 ± 0.2 |
| CACUAGCAAUAUUACGAUCG | 0.531 ± 0.067 | 0.717 ± 0.071 |
| CACUAGCAAUAUUACGAUUG | -0.641 ± 0.07 | -0.457 ± 0.081 |
| CACUAGCAAUAUUACGCAAA | -2.95 ± 0.21 | -2.46 ± 0.27 |
| CACUAGCAAUAUUACGCCAG | -1.1 ± 0.08 | -0.0668 ± 0.11 |
| CACUAGCAAUAUUACGCCCG | 0.71 ± 0.13 | 0.619 ± 0.12 |
| CACUAGCAAUAUUACGCCUU | -1.4 ± 0.27 | -1.19 ± 0.16 |
| CACUAGCAAUAUUACGCGGU | -4.59 ± 0.26 | -3.62 ± 0.28 |
| CACUAGCAAUAUUACGCGUG | -3.99 ± 0.21 | -3.12 ± 0.25 |
| CACUAGCAAUAUUACGCUGG | -4.08 ± 0.37 | -1.87 ± 0.22 |
| CACUAGCAAUAUUACGGAAU | -4 ± 0.27 | -2.3 ± 0.32 |
| CACUAGCAAUAUUACGGACC | – | -1.8 ± 0.24 |
| CACUAGCAAUAUUACGGACG | 0.105 ± 0.064 | 0.332 ± 0.08 |
| CACUAGCAAUAUUACGGGAG | -1.54 ± 0.073 | -0.152 ± 0.076 |
| CACUAGCAAUAUUACGGGCC | -4.05 ± 0.25 | -2.56 ± 0.22 |
| CACUAGCAAUAUUACGUACG | -0.239 ± 0.071 | 0.494 ± 0.083 |
| CACUAGCAAUAUUACGUCUA | -2.25 ± 0.23 | -2.52 ± 0.29 |
| CACUAGCAAUAUUACGUGCC | -4.04 ± 0.46 | -2.17 ± 0.29 |
| CACUAGCAAUAUUACGUUAA | -2.77 ± 0.2 | -2.11 ± 0.23 |
